{
  "source": "paper PMC11063343",
  "molecular_target": "cellugyrin Inner loop 1A peptide",
  "assay": "SPR",
  "data": [
    {"substance": "full length SARS-CoV-2 spike protein (from UniProt P0DTC2) (natural protein)", "values": [
      {"measurement": "maximum RU", "result": 220, "unit": "RU"}
    ]}
  ]
}
